# Data: the supplement of paper PMC10567573
# B1: SNAP91 (parent)
# chain: FATASAAVPVSTSKPSSDLLDLQP
# Variants of: B1
# Experiment: protein stability index of a GFP-peptide fusion (GPS, HEK-293T) (PSI 1-6); higher = more stable
# Settings: c terminus: a fixed tail appended
# 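Also: lentivirally expressed fusions sorted by FACS into six bins by GFP to DsRed ratio, PSI derived from sequencing read proportions per bin multiplied by bin number.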
row,Variant,protein stability index
1,FATAWAAVPVSTSKPSSDLLDLQP [S5W],3.73
2,FATAPAAVPVSTSKPSSDLLDLQP [S5P],3.54
3,FATANAAVPVSTSKPSSDLLDLQP [S5N],3.66
4,FATAEAAVPVSTSKPSSDLLDLQP [S5E],4.02
5,FATAYAAVPVSTSKPSSDLLDLQP [S5Y],1.67
6,FATAAAAVPVSTSKPSSDLLDLQP [S5A],3.46
7,FATARAAVPVSTSKPSSDLLDLQP [S5R],3.45
8,FATAVAAVPVSTSKPSSDLLDLQP [S5V],3.21
9,FATADAAVPVSTSKPSSDLLDLQP [S5D],4.17
10,FATALAAVPVSTSKPSSDLLDLQP [S5L],2.28
11,FATAQAAVPVSTSKPSSDLLDLQP [S5Q],3.38
12,FATAFAAVPVSTSKPSSDLLDLQP [S5F],1.45
13,FATACAAVPVSTSKPSSDLLDLQP [S5C],3.02
14,FATAGAAVPVSTSKPSSDLLDLQP [S5G],3.54
15,FATAHAAVPVSTSKPSSDLLDLQP [S5H],3.33
16,FATAMAAVPVSTSKPSSDLLDLQP [S5M],2.83
17,FATAKAAVPVSTSKPSSDLLDLQP [S5K],4.11
18,FATATAAVPVSTSKPSSDLLDLQP [S5T],3.73
19,FATAIAAVPVSTSKPSSDLLDLQP [S5I],2.8
20,FAQASAAVPVSTSKPSSDLLDLQP [T3Q],4.15
21,FAMASAAVPVSTSKPSSDLLDLQP [T3M],3.16
22,FAPASAAVPVSTSKPSSDLLDLQP [T3P],2.41
23,FAIASAAVPVSTSKPSSDLLDLQP [T3I],2.81
24,FADASAAVPVSTSKPSSDLLDLQP [T3D],3.8

row,Variant,protein stability index
1,FAGASAAVPVSTSKPSSDLLDLQP [T3G],2.65
2,FAEASAAVPVSTSKPSSDLLDLQP [T3E],4.26
3,FASASAAVPVSTSKPSSDLLDLQP [T3S],3.39
4,FAAASAAVPVSTSKPSSDLLDLQP [T3A],2.8
5,FAYASAAVPVSTSKPSSDLLDLQP [T3Y],1.98
6,FAHASAAVPVSTSKPSSDLLDLQP [T3H],3.71
7,FAWASAAVPVSTSKPSSDLLDLQP [T3W],1.64
8,FAFASAAVPVSTSKPSSDLLDLQP [T3F],2.15
9,FAVASAAVPVSTSKPSSDLLDLQP [T3V],4.38
10,FAKASAAVPVSTSKPSSDLLDLQP [T3K],3.22
11,FALASAAVPVSTSKPSSDLLDLQP [T3L],3.35
12,FANASAAVPVSTSKPSSDLLDLQP [T3N],3.24
13,FACASAAVPVSTSKPSSDLLDLQP [T3C],3.45
14,FATASVAVPVSTSKPSSDLLDLQP [A6V],2.98
15,FATASMAVPVSTSKPSSDLLDLQP [A6M],2.92
16,FATASNAVPVSTSKPSSDLLDLQP [A6N],4.69
17,FATASQAVPVSTSKPSSDLLDLQP [A6Q],3.67
18,FATASFAVPVSTSKPSSDLLDLQP [A6F],2.31
19,FATASCAVPVSTSKPSSDLLDLQP [A6C],2.46
20,FATASYAVPVSTSKPSSDLLDLQP [A6Y],1.96
21,FATASEAVPVSTSKPSSDLLDLQP [A6E],4.31
22,FATASIAVPVSTSKPSSDLLDLQP [A6I],2.41
23,FATASLAVPVSTSKPSSDLLDLQP [A6L],2.47
24,FATASGAVPVSTSKPSSDLLDLQP [A6G],3.5

row,Variant,protein stability index
1,FATASTAVPVSTSKPSSDLLDLQP [A6T],3.5
2,FATASDAVPVSTSKPSSDLLDLQP [A6D],4.22
3,FATASWAVPVSTSKPSSDLLDLQP [A6W],4.07
4,FATASKAVPVSTSKPSSDLLDLQP [A6K],4.23
5,FATASHAVPVSTSKPSSDLLDLQP [A6H],3.19
6,FATASSAVPVSTSKPSSDLLDLQP [A6S],3.78
7,FATASRAVPVSTSKPSSDLLDLQP [A6R],3.31
8,FATASPAVPVSTSKPSSDLLDLQP [A6P],3.54
9,FATASAAVCVSTSKPSSDLLDLQP [P9C],2.27
10,FATASAAVFVSTSKPSSDLLDLQP [P9F],1.93
11,FATASAAVVVSTSKPSSDLLDLQP [P9V],2.24
12,FATASAAVDVSTSKPSSDLLDLQP [P9D],3.78
13,FATASAAVSVSTSKPSSDLLDLQP [P9S],3.26
14,FATASAAVKVSTSKPSSDLLDLQP [P9K],3.23
15,FATASAAVAVSTSKPSSDLLDLQP [P9A],2.96
16,FATASAAVHVSTSKPSSDLLDLQP [P9H],3.46
17,FATASAAVEVSTSKPSSDLLDLQP [P9E],3.99
18,FATASAAVIVSTSKPSSDLLDLQP [P9I],1.87
19,FATASAAVGVSTSKPSSDLLDLQP [P9G],2.3
20,FATASAAVTVSTSKPSSDLLDLQP [P9T],3.73
21,FATASAAVNVSTSKPSSDLLDLQP [P9N],3.75
22,FATASAAVQVSTSKPSSDLLDLQP [P9Q],3.31
23,FATASAAVLVSTSKPSSDLLDLQP [P9L],1.92
24,FATASAAVRVSTSKPSSDLLDLQP [P9R],3.05

row,Variant,protein stability index
1,FATASAAVMVSTSKPSSDLLDLQP [P9M],2.29
2,FATASAAVPFSTSKPSSDLLDLQP [V10F],2.69
3,FATASAAVPHSTSKPSSDLLDLQP [V10H],4.01
4,FATASAAVPMSTSKPSSDLLDLQP [V10M],3.55
5,FATASAAVPDSTSKPSSDLLDLQP [V10D],4.18
6,FATASAAVPYSTSKPSSDLLDLQP [V10Y],4.29
7,FATASAAVPISTSKPSSDLLDLQP [V10I],3.39
8,FATASAAVPESTSKPSSDLLDLQP [V10E],4.23
9,FATASAAVPQSTSKPSSDLLDLQP [V10Q],4.61
10,FATASAAVPPSTSKPSSDLLDLQP [V10P],4.36
11,FATASAAVPKSTSKPSSDLLDLQP [V10K],4.04
12,FATASAAVPRSTSKPSSDLLDLQP [V10R],2.85
13,FATASAAVPSSTSKPSSDLLDLQP [V10S],3.97
14,FATASAAVPTSTSKPSSDLLDLQP [V10T],4.17
15,FATASAAVPLSTSKPSSDLLDLQP [V10L],3.63
16,FATASAAVPNSTSKPSSDLLDLQP [V10N],3.94
17,FATASAAVPASTSKPSSDLLDLQP [V10A],3.87
18,FATASAAVPGSTSKPSSDLLDLQP [V10G],3.37
19,FATASAAVPCSTSKPSSDLLDLQP [V10C],3.18
20,FMTASAAVPVSTSKPSSDLLDLQP [A2M],3.79
21,FNTASAAVPVSTSKPSSDLLDLQP [A2N],3.85
22,FLTASAAVPVSTSKPSSDLLDLQP [A2L],3.75
